US12385055B2, “Compositions and methods for production of salidroside, icariside D2, and precursors of salidroside and icariside D2” (Whitehead Institute for Biomedical Research, priority 2017, dated 2025)

B1: Rhodiola rosea RrT4GT (RrUGT3), tyrosol:UDP-glucose 4-O-glucosyltransferase, SEQ ID NO: 8 (Rhodiola rosea) (protein)
chain: MSGTPHIAILPSPGMGHLIPMAEFAKRLVHHHNFSITFVIPTDGPPSSAYQQVLTSLPSSIDHIFLPQVDLTDVVSQSPAHPRIETLISLTVARSLSSLRTTLSSLQSSKNLVSLVVDLFGTDAFDPAIELGISPYIFFPSTAMTLSLFLYMPQLDKSVTCEFRHMTDLVRIPGCVPVRGSDLFDPVQDRTDEAYKWVIHHSNRYPMAEGVIENSFMELEHGALKYLQTVQSGKPPVYAVGPLIKMDYDVDDSGSKIIEWLDDQPVGSVLFVSFGSGGTLSYEQMTELAHGLESSQQRFLWVVRSPNQIPNSTYFSVQSQKDPLAYLPEGFLNRTEGRGLVVSNWAPQAQILSHGSTGGFMSHCGWNSILESVVHGVPIIAWPLYAEQKMNSIIVVEDVKVALRPAGVGERVVERSEITAVVKALMEGEEGKKVRNRMKELKEAAARAVSDDGASTIAIADLAQKWRSSMKH
B2: RrUGT7: R. rosea UGT with regio-specific T4GT activity (protein, listed as Rhodiola rosea)
chain: MAENTHAHAIVVPFPVQGHIKPSLNLALKLASQGFTITFVTTHFTHQQISQAHKNSTNTNHDMFFQARNSSLDIRHVTVTDTFPLGFDRAGNQDQFWEGMLHVFPAHVDELVDQLMNSSKPRPTCLILDTFYNWGSKIANKFNLVHISFWTQSALSFTLFYHWELLKKNGHFGSPDNRTDVIDYIPGVQEIKPADLISYLQMSDTTTVAHRTCFTAFEDVRKADFILANTIQEFETDTISSIRFHQPFFYPIGPVFLTKSEQQASSALWSESDCEQWLSTKPKGSVLYASFGSYARVTRHDIAEIAYGLMQSEVNFIWVIRDDIVGAHETDFLPTEFINGIKLKDQGLLVSWCSQTEVLSNAAIGGFLTHCGWNSILESVWCEVPLLCFPIMTDQPSNRKLVVDDWRIGVNLSAAEEVSREEVSMKVRNLISGELGNELRVQIQKYKKLMENGIMEGGSSHSNWNKFIHDLQIFKK
B3: RrUGT29: R. rosea UGT with regio-specific T8GT activity, salidroside-producing (protein, listed as Rhodiola rosea)
chain: MGSLGKKIQQKPHAICTPYPAQGHINPMLKLAKLLHHSGFYITFVHTTYNYNRLLKTHGSDSLSGLPDFQFETIPDGLPPSDAADVTQDIPALCKSTTETCLVPFKELLAKLHNKSMASPEEVPPVTCIVSDGCMSFTVDAAEEAGVPNVLLWTTSACGFLGYANYPKLIDRGIIPLKDESYFTNGYLDKTVDGIPGMKGIRLRDFPNFVCTTNPDEFMVKYAIQEITRAARADAVILNTFDALEHDFLDGLSNIYPKVLPIGPLQLPLNQIPESSPLHSICSSLWKDEPQCITWLNSQKPKSVVYVNYGSITVMTPQQMVEFAWGLANTKYPFLWIIRPDLVAGETAVLPPDFLEVTKGRSCLASWCPQEQVLSHTSIGGFLTHCGWNSMLESVVEGVPMVCWPFFAEQQTNCWAARTKWGIGMEIDNDVKRDKVQKMVTELMEGEKGKEMKRKGGEWKKLGAEAAGPNGSATLNFSRLINDVLLSKKKIVVTT
B4: RrUGT17: R. rosea UGT with both T8GT and T4GT activities (protein, listed as Rhodiola rosea)
chain: MGSLPSTKSHAVLVPYPAQGHINPFMQLAKLLHSKGFHITFVNNDHNHRRLLRTKGHDFVQGLEGLRFEAVPDGLPPSDRDATQDVPKLTESIYNKSMNQPFSDLLQRLNSTPGSPPVTCVISDVAMFFAWDVADELGIPNVQFWTASACGLLGYLQYDELLRRAIVPFKDENFMTDGSLEALIDWIPGMPNMRLKDLPSFMRTTSPDDVLFNYLRTITTKALKSSALLLNTFDDFEHEVVEEMKKMQPNIFLGGPLNMLLRHTSKTEITSLTTSLWKEDTHCLEWLDKQEPESVVYINYGSVTIMSDHHLNEFAWGLANSKHPFLWIVRPDVVRGESGTLPKEFYDEIKDRGLITSWCPQPEVLKHPSVGVYLTHCGWNSITESVAGGVPLMCWPFFAEQQTNSRFACTVWGTGVEVNADVKREELAEQVMEMLEGKRGQELRKNAKEWRRKAEEATDIGGSAYADFDRFMEKVVQFSV
B5: RrUGT2: R. rosea UGT with regio-specific T4GT activity, icariside D2-producing (protein, listed as Rhodiola rosea)
chain: MGSDSRPLRVFFFPFMAHGHLIPMVDIARLFSSQGVHSTIITTPLNANYISKTTSLSIKTIPFPAAEVGLPDGCENIDMLPSPDLFFKFFQAANLLQAPFENLLELERPDCLISDIFFPWSVDSAEKFNIPRLVFHGTSFFAMCAMESLKTHKPYKSVSTDSEPFLIPNLPDEIKMTKSQFTVDAWEDTEKGLGKLLADARASGLRSFGMIVNSFHELEPAYADYYKNVLNMKAWCVGPVSLYNRNDDEKIARGKKSAIDDHECLKWLEGKQPDSVVYVCFGSSASFPDEQLRDIALGLEESGVNFIWVIRRSSESGSEDYLPEGFEDRVKDRGLVIRGWAPQVLILDHPSVGGFVTHCGWNSALEGISAGLPMVTWPLFAEQFFNQKLITDVLKVGVEVGVQKWSRNGEDRVTKEKVEKAVRAVMVGEDAEERRGRARQLGKLAKKAVAKDGSSYIDLHNLLDELKLRRETLS
B6: RrUGT13: R. rosea UGT with regio-specific T4GT activity (protein, listed as Rhodiola rosea)
chain: MAEISLIFIPFPVISHLTPTIEIAKILLSRDHRLSITFLVIDIPQRDASLASLTTSIISDRLHFLDVVLPPNQHSQSSKPSGIAAIESAKPAVKKTISDLVVRSQSAASGPRIAGFVLDMFCTAMIDIATEFNLPSYIYYTCGSSFLSIVLHVQKLCDDDALDIADFKNSSVEFSLPEFSNLIPARLLPSMALDKDFSASFVGKARAFRKTKGILVNSLVELEPHAIESMKLDRSVPPIYSVGPVLNMNSNTAFIRQEQEKEIMEWLDQQPPASVVFLCFGSRGAFKPDQVKEIARGLESSGCRFLWALRQPSSSNVRFSPPTDYEDFSEVLPEGFLQRTYGVGKVIGWAPQTAVLDHPSVGGFVSHCGWNSILESLWFGVPIATWPLYAEQQMNAFEVVKEMKIGVEISLDYRLEMGGKQAEGSGIISGEQIERGIRDVMQEDSEVRKKVKLMMEKSREAVVEGGSSYNYIQNFISDLRTNIGL
B7: RrUGT32: R. rosea UGT with regio-specific T8GT activity (protein, listed as Rhodiola rosea)
chain: MGSLGKKIQQKPHAICTPYPAQGHINPMLKLAKLLHHSGFYITFVHTTYNYNRLLKTHGSDSLSGLPDFQFETIPDGLPPSDAADVTQDIPALCKSTTETCLVPFKELLAKLHNKSMASPEEVPPVTCIVSDGCMSFTVDAAEEAGVPNVLLWTTSACGFLGYANYPKLIDRGIIPLKDESYFTNGYLDKTVDGIPGMKGIRLRDFPNFVCTTNPDEFMVKYAIQEITRAARADAVILNTFDALEHDFLDGLSNIYPKVLPIGPLQLPLNQIPESSPLHSICSSLWKDEPQCITWLNSQKPKSVVYVNYGSITVMTPQQMVEFAWGLANTKYPFLWIIRPDLVAGETAVLPPDFLEVTKGRSCLASWCPQEQVLSHTSIGGFLTHCGWNSMLESVVEGVPMVCWPFFAEQQTNCWAARTKWGIGMEIDNDVKRDKVQKMVTELMEGEKGKEMKRKGGEWKKLGAEAAGPNGSATLNFSRLINDVLLSKKKL

Assays:
[1] = substrate: OCCc1ccc(O)cc1; assay: Michaelis-Menten kinetics of RrT4GT (RrUGT3), tyrosol 4-O-glucosylation; type: biochemical, Rhodiola rosea; conditions: other: substrate tyrosol (0.01-5.0 mM), 10 mM UDP-glucose, pH 8.0, 30° C., 10 min
Procedure: Kinetic characterization of UGTs was conducted in 200 μL reaction buffer (50 mM Tris, pH 8.0) containing 10 mM UDP-glucose and various concentrations of tyrosol (0.01-5.0 mM). Reactions were started with addition of recombinant enzyme, incubated at 30° C. for 10 minutes, and quenched by addition of 200 μL of methanol. The reaction mixed was then analyzed by LC-HRAR-MS as described above. Compounds were separated by reversed-phase chromatography with a ramp gradient of solvent A (0.1% formic acid in H2O) and solvent B (0.1% formic acid in acetonitrile): 5% solvent B for 0.5 min, 5-55% solvent B over 6 min, 55-5% solvent B over 1.0 min and a final equilibration of 5% solvent B for 1 min with a flow rate at 0.6 mL/min. Product formation was measured using select ion monitoring in positive mode for a centroid center mass of 318.15. Product mass was calculated by comparison to a standard curve of the NMR verified plant purified salidroside and icariside D2 samples.
Kinetic constants such as Km and Vmax were determined by fitting raw data to the Michaelis-Menten equation using the nonlinear regression function in Prism (version 7.0).

tyrosol = assay: In vivo tyrosol glycosylation assay in yeast expressing Rr4HPAAS; type: cell-based; conditions: UGT on 2-micron TEF-promoter plasmid in S. cerevisiae BY4743 expressing Rr4HPAAS
Description: To facilitate functional assessment of a large number of UGT candidates, an in vivo tyrosol glycosylation assay in the yeast S. cerevisiae was devised. Initial iterations of the tyrosol-producing yeast strains were generated by transforming wild type S. cerevisiae BY4743 with separate 2-micron TEF-promoter expression plasmids containing Rr4HPAAS and Rr4HPAR1, respectively. It was later observed that yeast contains endogenous ADH activity sufficient to reduce 4-hydroxyphenylacetaladehyde produced by Rr4HPAAS to tyrosol. Therefore, the Rr4HPAR1-containing plasmid was omitted in the final tyrosol-producing strain (FIG. 18). Each of the 34 R. rosea UGT candidate genes, carried on the yeast 2-micron TEF-promoter expression plasmids, was transformed into the background strain expressing Rr4HPAAS. After auxotrophic selection, colonies were cultured, harvested and subjected to metabolic profiling by LC-HRAM-MS. […] The UGTs that contain T4GT activity appear to be phylogenetically diverse with representative enzymes falling into the D, G, E and K groups, while all of identified T8GTs cluster within the G group (FIG. 4A).
Crown tissue and root tissue of a three-month-old R. rosea plant was harvested and stored at −80° C. before subsequent metabolomic analysis. Various transgene-carrying S. cerevisiae BY4743 strains and transiently transformed N. benthamiana plants were generated to test the activity of candidate genes involved in the tyrosol glycoside biosynthesis. 3 mL of saturated S. cerevisiae culture was used to inoculate 50 mL of synthetic minimal media (SD) in a shake flask. After 24 hours of shaking at 30° C., the culture was pelleted by centrifugation, washed with water, and stored at −80° C. before further processing. N. benthamiana leaf tissue was harvested 5 days after Agrobacterium infiltration and was stored at −80° C. before further processing. Frozen yeast or plant tissue was disrupted with a TissueLyser (Qiagen) using acid-washed metal beads in 50% methanol (500 μL per 100 mg fresh weight). The extracts were then analyzed by LC-HRAM-MS. Metabolite profiling was conducted on a QExactive benchtop orbitrap mass spectrometer equipped with an Ion Max source and a HESI II probe, which was coupled to a Dionex UltiMate 3000 UPLC system (Thermo Fisher Scientific). 2 μL of each sample was injected onto a 150×2.1 mm ZIC-pHILIC column (5 μm particle size, EMD Millipore). Solvent A was 20 mM ammonium carbonate, 0.1% ammonium hydroxide; solvent B was acetonitrile. The column oven and autosampler tray were held at 25° C. and 4° C., respectively. The chromatographic gradient was run at a flow rate of 0.15 mL/min as follows: 0-20 min, linear gradient from 80% to 20% solvent B; 20-20.5 min, linear gradient from 20% to 80% solvent B; 20.5-28 min, hold at 80% solvent B. The mass spectrometer was operated in full-scan, polarity-switching mode with the spray voltage set to 3.0 kV, the heated capillary held at 275° C., and the HESI probe held at 350° C. The sheath gas flow was set to 40 units, the auxiliary gas flow was set to 15 units, and the sweep gas flow was set to 1 unit. The MS data acquisition was performed in a range of 70-1000 m/z, with the resolution set at 70,000, the AGC target at 10 e6, and the maximum injection time at 20 msec. The raw data was converted to mzML format using MSConvert (Chambers et al., 2012), and analyzed using MetaboAnalyst (Xia and Wishart, 2016) and MZmine2 (Pluskal et al., 2010).

| Molecule | tyrosol glycosylation activity (T8GT / T4GT) (tyrosol) | other results |
| --- | --- | --- |
| B1 |  | Km [1]: 4.11 ± 0.08 mM; kcat [1]: 481.6 ± 3.91 s⁻¹; kcat/Km [1]: 117000 M⁻¹ s⁻¹ |
| B2 | regio-specific T4GT activity |  |
| B3 | regio-specific T8GT activity |  |
| B4 | both T8GT and T4GT activities |  |
| B5 | regio-specific T4GT activity |  |
| B6 | regio-specific T4GT activity |  |
| B7 | regio-specific T8GT activity |  |
